The record followed here is patent US20140087995A1 (published 2014).

Numbered stars: 1 amine (or outer) side, 2 acyl side, 3 side chain; on linkers, the order of the positions; unused ones are H or OH. Bridge positions count the residues as written; N and C are the ends. * marks the point of attachment. C20 diacid = O=C(O)CCCCCCCCCCCCCCCCCCC(=O)*; γGlu = O=C(O)[C@H](CCC(=O)[*:2])N[*:1]

The target of test [1] is T1, human amylin 3(a) receptor (human calcitonin receptor + RAMP-3) (human, UniProt P30988 25-474; O60896 24-148, limits assumed).
T1 construct: whole, on cells; Whole cells in the luciferase assay (Assay II a); also called hAmylin-R; hAmylinR
T1 sequence (looked up) 1: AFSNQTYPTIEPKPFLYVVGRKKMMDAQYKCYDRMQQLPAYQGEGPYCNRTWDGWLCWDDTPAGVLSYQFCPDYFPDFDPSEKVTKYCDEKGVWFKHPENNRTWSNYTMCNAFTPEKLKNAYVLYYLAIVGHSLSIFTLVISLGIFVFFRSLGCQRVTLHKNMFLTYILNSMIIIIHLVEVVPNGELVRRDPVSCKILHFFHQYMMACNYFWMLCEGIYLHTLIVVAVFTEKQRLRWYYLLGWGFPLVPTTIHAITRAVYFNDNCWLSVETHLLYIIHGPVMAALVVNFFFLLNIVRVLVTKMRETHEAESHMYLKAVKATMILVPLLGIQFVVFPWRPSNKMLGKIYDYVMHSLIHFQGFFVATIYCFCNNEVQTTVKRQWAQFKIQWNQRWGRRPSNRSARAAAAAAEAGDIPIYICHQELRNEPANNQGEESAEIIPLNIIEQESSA
T1 sequence (looked up) 2: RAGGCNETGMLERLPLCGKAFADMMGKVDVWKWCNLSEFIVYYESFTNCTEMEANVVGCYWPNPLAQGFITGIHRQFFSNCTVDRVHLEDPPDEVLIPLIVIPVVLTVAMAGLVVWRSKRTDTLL
The test is described as follows: SPA competition binding, membranes of BHK cells with human calcitonin receptor + RAMP-3, displacement of 125I-rat amylin (Assay V). Here is the method: The binding assay was performed using scintillation proximity assay (SPA) beads (RPNQ0001) from PerkinElmer and cell membranes from the Amylin 3(a)/CRE-luc cells (as described in Assay (II)) were used. Membranes were prepared in the following way; the cells were rinsed with PBS and incubated with Versene for approximately 5 min before harvesting. The cells were flushed with PBS and the cell-suspension was centrifuged for 5 min at 1000 rpm. Cells were homogenized (ultrathurrax) in a buffer containing 20 mM Na-HEPES and 10 mM EDTA (pH 7.4) and centrifuged at 20.000 rpm for 15 min. The resulting pellet was resuspended, homogenized and centrifuged (20.000 rpm, 15 min) in a buffer containing 20 mM Na-HEPES and 0.1 mM EDTA (pH 7.4, buffer 2). The resulting pellet was resuspended in buffer 2 and protein concentration was measured (BCA protein Assay, Pierce). The homogenate was kept cold during the whole procedure. The membranes were kept at −80° C. until use. The assay was performed in a 384 well Optiplate (PerkinElmer) in a total volume of 40 ul. Membranes were mixed with SPA beads. Final concentration of membranes 35 ng/μL final and SPA beads was 0.05 mg/well. Test-compounds were dissolved in DMSO and further diluted in assay buffer (50 mM Hepes, pH 7.4, 1 mM CaCl2, 5 mM MgCl₂, 0.1% OA and 0.02% Tween20). […] The final mixture was incubated with shaking at 400 rpm for 120 min at 25° C. prior to centrifugation (1500 rpm, 10 min). Samples were analyzed on TopCounter™ (Packard). The IC₅₀ was calculated using (one site binding competition analysis) GraphPad Prism5 as a measure of receptor affinity.
A general note: In a radioligand displacement assay an active substance lowers the binding of a labelled ligand.

Test [2] addresses T1, human amylin 3(a) receptor (human …). Kind of test: cell-based or functional assay.
For test [3], the target named is T2, human calcitonin receptor (human, UniProt P30988 25-474).
T2 sequence (looked up): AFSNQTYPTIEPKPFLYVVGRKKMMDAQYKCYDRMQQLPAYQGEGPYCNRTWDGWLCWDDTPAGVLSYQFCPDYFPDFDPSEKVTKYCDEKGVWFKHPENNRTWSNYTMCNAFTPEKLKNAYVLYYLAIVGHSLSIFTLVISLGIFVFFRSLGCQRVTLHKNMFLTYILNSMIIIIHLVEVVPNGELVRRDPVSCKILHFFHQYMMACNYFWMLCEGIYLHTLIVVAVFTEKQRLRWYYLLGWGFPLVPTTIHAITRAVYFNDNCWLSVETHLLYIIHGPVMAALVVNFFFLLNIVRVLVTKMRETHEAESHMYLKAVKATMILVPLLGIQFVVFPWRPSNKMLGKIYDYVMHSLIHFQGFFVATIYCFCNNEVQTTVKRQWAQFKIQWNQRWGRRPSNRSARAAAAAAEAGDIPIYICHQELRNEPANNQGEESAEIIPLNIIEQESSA
Kind of test: cell-based or functional assay.

B1: N^α1-[(4S)-4-carboxy-4-(19-carboxynonadecanoylamino)butanoyl]-[Glu14,Arg17,Pro21,Pro25,Pro28,Pro29,Pro37]-h-amylin (peptide)
peptide: {C20 diacid-γGlu}-KCNTATCATQRLAEFLRHSSPNFGPILPPTNVGSNTP-NH2
modifications: disulfide 2-7
SMILES: CC[C@H](C)[C@H](NC(=O)[C@@H]1CCCN1C(=O)CNC(=O)[C@H](Cc1ccccc1)NC(=O)[C@H](CC(N)=O)NC(=O)[C@@H]1CCCN1C(=O)[C@H](CO)NC(=O)[C@H](CO)NC(=O)[C@H](Cc1c[nH]cn1)NC(=O)[C@H](CCCNC(=N)N)NC(=O)[C@H](CC(C)C)NC(=O)[C@H](Cc1ccccc1)NC(=O)[C@H](CCC(=O)O)NC(=O)[C@H](C)NC(=O)[C@H](CC(C)C)NC(=O)[C@H](CCCNC(=N)N)NC(=O)[C@H](CCC(N)=O)NC(=O)[C@@H](NC(=O)[C@H](C)NC(=O)[C@@H]1CSSC[C@H](NC(=O)[C@H](CCCCN)NC(=O)CC[C@H](NC(=O)CCCCCCCCCCCCCCCCCCC(=O)O)C(=O)O)C(=O)N[C@@H](CC(N)=O)C(=O)N[C@@H]([C@@H](C)O)C(=O)N[C@@H](C)C(=O)N[C@@H]([C@@H](C)O)C(=O)N1)[C@@H](C)O)C(=O)N[C@@H](CC(C)C)C(=O)N1CCC[C@H]1C(=O)N1CCC[C@H]1C(=O)N[C@H](C(=O)N[C@@H](CC(N)=O)C(=O)N[C@H](C(=O)NCC(=O)N[C@@H](CO)C(=O)N[C@@H](CC(N)=O)C(=O)N[C@H](C(=O)N1CCC[C@H]1C(N)=O)[C@@H](C)O)C(C)C)[C@@H](C)O
notes: disulfide and C-terminal amide as told for human amylin and the amide resins of the synthesis; also called compound 4
With B1, in test [1], the half-maximal inhibitory concentration (IC50) – broadly, the concentration that gives 50% inhibition – is 321 pM. The “hAmylin-R funct. EC50 (pM)” value in test [2] turned out to be 60 pM. For the same molecule, in test [3], the “Ratio hCT/hAmylin funct.” value turned out to be 1.2.

B2: N^α1-[(4S)-4-carboxy-4-(19-carboxynonadecanoylamino)butanoyl]-[Glu14,Arg17,Pro21,Pro26,Pro37]-h-amylin (peptide)
peptide: {C20 diacid-γGlu}-KCNTATCATQRLAEFLRHSSPNFGAPLSSTNVGSNTP-NH2
modifications: disulfide 2-7
SMILES: CC(C)C[C@H](NC(=O)[C@H](CCCNC(=N)N)NC(=O)[C@H](CCC(N)=O)NC(=O)[C@@H](NC(=O)[C@H](C)NC(=O)[C@@H]1CSSC[C@H](NC(=O)[C@H](CCCCN)NC(=O)CC[C@H](NC(=O)CCCCCCCCCCCCCCCCCCC(=O)O)C(=O)O)C(=O)N[C@@H](CC(N)=O)C(=O)N[C@@H]([C@@H](C)O)C(=O)N[C@@H](C)C(=O)N[C@@H]([C@@H](C)O)C(=O)N1)[C@@H](C)O)C(=O)N[C@@H](C)C(=O)N[C@@H](CCC(=O)O)C(=O)N[C@@H](Cc1ccccc1)C(=O)N[C@@H](CC(C)C)C(=O)N[C@@H](CCCNC(=N)N)C(=O)N[C@@H](Cc1c[nH]cn1)C(=O)N[C@@H](CO)C(=O)N[C@@H](CO)C(=O)N1CCC[C@H]1C(=O)N[C@@H](CC(N)=O)C(=O)N[C@@H](Cc1ccccc1)C(=O)NCC(=O)N[C@@H](C)C(=O)N1CCC[C@H]1C(=O)N[C@@H](CC(C)C)C(=O)N[C@@H](CO)C(=O)N[C@@H](CO)C(=O)N[C@H](C(=O)N[C@@H](CC(N)=O)C(=O)N[C@H](C(=O)NCC(=O)N[C@@H](CO)C(=O)N[C@@H](CC(N)=O)C(=O)N[C@H](C(=O)N1CCC[C@H]1C(N)=O)[C@@H](C)O)C(C)C)[C@@H](C)O
notes: also called compound 5
In the case of B2, the IC50 in test [1] turned out to be 374 pM. Also, the “hAmylin-R funct. EC50 (pM)” value in test [2] stood at 162 pM. The “Ratio hCT/hAmylin funct.” value in test [3] was 1.
{C20 diacid-γGlu}-KCNTATCATQRLAEFLRHSSPNFGAILPSTNVGSETY-NH2 (disulfide 2-7, also called compound 33): the half-inhibitory concentration (IC50) in test [1] is 915 pM. Further, the “hAmylin-R funct. EC50 (pM)” value in test [2] is 243 pM. Further, the “Ratio hCT/hAmylin funct.” value in test [3] turned out to be 2.2.
